Results: the supplement of paper PMC12855868

B1: library; numbered along this chain (parent)
chain: MAAAGGARLLRAASAVLGGPAGRWLHHAGSRAGSSGLLRNRGPGGSAEASRSLSVSARARSSSEDKITVHFINRDGETLTTKGKVGDSLLDVVVENNLDIDGFGACEGTLACSTCHLIFEDHIYEKLDAITDEENDMLDLAYGLTDRSRLGCQICLTKSMDNMTVRVPETVADARQSIDVGKTS

Variants of: B1
Experiment: scaled log2 fold change in cell abundance, elesclomol vs control (0 = silent mean, 1 = nonsense mean) (scaled log2 ratio); higher = higher viability under elesclomol (loss of FDX1 cuproptosis function)
Conditions: glucose 10 mM
Method: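 Deep mutational scan of full-length human FDX1: a pooled saturation-mutagenesis ORF library (every residue 2-184 mutated to all 19 amino acids plus stop, and silent codons where available) was expressed by lentivirus in FDX1-knockout ABC1 (14 days) or HEK293T (11 days) cells grown with elesclomol (ES) or DMSO control. Variant abundance came from ORF sequencing. The log2 fold change (ES vs control, mean of duplicates) was centred on the silent-variant mean (0) and scaled to the nonsense-variant mean (1). Higher values mean greater viability under ES, i.e. loss of FDX1 function in cuproptosis.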

[1] = with ABC1 FDX1 KO, elesclomol 5 nM, 14 days
[2] = with HEK293T FDX1 KO, elesclomol 40 nM, 11 days
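Note: variant abundance is its share of total variant reads in each endpoint sample, from next-generation sequencing of the integrated ORF PCR-amplified out of genomic DNA.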

Variant	scaled log2 fold change [1]	scaled log2 fold change [2]
MAAAGGARLLRAASAVLGGPAGRWLHHAGSRAGSSGLLRNRGPGGSAEASRSLSVSARARSSSEDKITVHFINRDGYTLTTKGKVGDSLLDVVVENNLDIDGFGACEGTLACSTCHLIFEDHIYEKLDAITDEENDMLDLAYGLTDRSRLGCQICLTKSMDNMTVRVPETVADARQSIDVGKTS [E77Y]	0.514	-0.542
MAAAGGARLLRQASAVLGGPAGRWLHHAGSRAGSSGLLRNRGPGGSAEASRSLSVSARARSSSEDKITVHFINRDGETLTTKGKVGDSLLDVVVENNLDIDGFGACEGTLACSTCHLIFEDHIYEKLDAITDEENDMLDLAYGLTDRSRLGCQICLTKSMDNMTVRVPETVADARQSIDVGKTS [A12Q]	0.144	0.91
MAAAGGARLLRAASAVLGGPAGRWLHHAGSRAGSSGLLRNRGPGGSAEASRSLSVSARARSSSEDKITVHFINRDGETLTTKGKVGDSLLRVVVENNLDIDGFGACEGTLACSTCHLIFEDHIYEKLDAITDEENDMLDLAYGLTDRSRLGCQICLTKSMDNMTVRVPETVADARQSIDVGKTS [D91R]	-0.658	-0.752
MAAAGGARLLRAASAVLGGPAGRWLHHAGSRAGSSGLLRNRGPGGSAEASRSLSVSARARSSSEDKITVHFINRDGETLLTKGKVGDSLLDVVVENNLDIDGFGACEGTLACSTCHLIFEDHIYEKLDAITDEENDMLDLAYGLTDRSRLGCQICLTKSMDNMTVRVPETVADARQSIDVGKTS [T80L]	-0.289	-0.147
MAAAGGARLLRAASAVLGGPAGRWLHHAGSRAGSSGLLRNRGPGGSAEASRSLSVSARARSSSEDKITVHFINLDGETLTTKGKVGDSLLDVVVENNLDIDGFGACEGTLACSTCHLIFEDHIYEKLDAITDEENDMLDLAYGLTDRSRLGCQICLTKSMDNMTVRVPETVADARQSIDVGKTS [R74L]	0.361	-0.577
MAAAGGARLLRAASAVLGGPAGRWLHHAGSRAGSSGLLRNRGPGGSAEASRSLSVSARARSSSEDKITVHFINRDGETLTTKGKVGDSLLDVVVENNLDIDGFGACEGTLACSTCHLIFEDHIYEKLDAITDEENDMLDLAYGLTDRSRLGCQICLTKSMDNMTVRVPETVADAIQSIDVGKTS [R175I]	-0.385	0.157
MAAAGGARLLRAASKVLGGPAGRWLHHAGSRAGSSGLLRNRGPGGSAEASRSLSVSARARSSSEDKITVHFINRDGETLTTKGKVGDSLLDVVVENNLDIDGFGACEGTLACSTCHLIFEDHIYEKLDAITDEENDMLDLAYGLTDRSRLGCQICLTKSMDNMTVRVPETVADARQSIDVGKTS [A15K]	-0.22	-0.495
MAAAGGARLLRAASAVLGGPAGRWLHHAGSRAGSSGLLRNRGPGGSAEASRSLSVSARARSSSEDKITVHFINRDGETLTTKGKVGDSLLDVVVENNLDIDGFGACEGTLACSTCHLIFEDHIYEKLDAITDEENDMLDLAYGLTDRSRLGCQICLTKSMDNMTVRVPTTVADARQSIDVGKTS [E169T]	-0.402	-0.135
MAAAGGARLLRAASAVLGGPAGRWLHHAGSRAGSSGLLRNRGPGGSAEASRSLSVSARARSSSEDKITVHFINRDGETLTTKGKVGDSLLDVVVENNLDIDGFGACEGTLACSTCHLIFEDHIYEKLDAIYDEENDMLDLAYGLTDRSRLGCQICLTKSMDNMTVRVPETVADARQSIDVGKTS [T131Y]	0.17	-0.668
MAAAGGARLLRAASAVLGGPAGRWLHHAGSRAGSSGLLRNRGPGGSAEASRSLSVSARARSSSEDKITVHFINRDGETLTTKGKVGDSLLDVVVENNLDIDGFGACESTLACSTCHLIFEDHIYEKLDAITDEENDMLDLAYGLTDRSRLGCQICLTKSMDNMTVRVPETVADARQSIDVGKTS [G108S]	0.376	0.952
MAAAGGARLLRAASAVLGGPAGRWLHHAGSRAGSSGLLRNRGPGGSAEASRSLSVSARARSSSEDKITVHFINRDGETLTTKGKVGDSLLDVVVENNLDIDGFGACECTLACSTCHLIFEDHIYEKLDAITDEENDMLDLAYGLTDRSRLGCQICLTKSMDNMTVRVPETVADARQSIDVGKTS [G108C]	1.05	0.472
MAAAGGARLLRAASAVLGGPAGRWLHHAGSRAGSSGLLRNRGPGGSAEADRSLSVSARARSSSEDKITVHFINRDGETLTTKGKVGDSLLDVVVENNLDIDGFGACEGTLACSTCHLIFEDHIYEKLDAITDEENDMLDLAYGLTDRSRLGCQICLTKSMDNMTVRVPETVADARQSIDVGKTS [S50D]	-0.421	-0.999
MAAAGGARLLRAASAVLGGPAGRWLHHAGSRAGSSGLLRNRGPGGSAEASRSLSVSARARSSSEDKITVHFINRDGETLTTKGKVGDSLLDVVVENNLDIDGFGACEGTLACSTCHLIFEDHIYEKLDAITDEENDMLDLAEGLTDRSRLGCQICLTKSMDNMTVRVPETVADARQSIDVGKTS [Y142E]	-0.1	-0.695
MAAAGGARLLRAASAVLGGPAGRWLHHAGSRAGSSGLLRNRGPGGSAEASGSLSVSARARSSSEDKITVHFINRDGETLTTKGKVGDSLLDVVVENNLDIDGFGACEGTLACSTCHLIFEDHIYEKLDAITDEENDMLDLAYGLTDRSRLGCQICLTKSMDNMTVRVPETVADARQSIDVGKTS [R51G]	0.508	-0.712
MAAAGGARLLRAASAVLGGPAGRWLHHAGSRAGSSGLLRNRGPGGSAEASRSLSVSARARSSSRDKITVHFINRDGETLTTKGKVGDSLLDVVVENNLDIDGFGACEGTLACSTCHLIFEDHIYEKLDAITDEENDMLDLAYGLTDRSRLGCQICLTKSMDNMTVRVPETVADARQSIDVGKTS [E64R]	-0.913	0.0821
MAAAGGARLLRAASAVLGGPAGRWLHHAGSRAGSSGLLRNRGPGGSAEASRSLSVSARARSSSVDKITVHFINRDGETLTTKGKVGDSLLDVVVENNLDIDGFGACEGTLACSTCHLIFEDHIYEKLDAITDEENDMLDLAYGLTDRSRLGCQICLTKSMDNMTVRVPETVADARQSIDVGKTS [E64V]	-0.321	-0.136
